Test results taken from US8735553 (BEIGENE SWITZERLAND, dated 2014).
Like-named read-outs stand apart in the source and are kept apart here.

B1: hu326-2 E46K (antibody, V domains shown)
VH: QVQLVQSGSELKKPGASVKVSCKASGYTFTNYGMNWVRQAPGQGLKWMGWINNNNGEPTYAQGFRGRFVFSLDTSASTAYLQISSLKTEDTAVYFCARDVMDYWGQGTTVTVSS
VL: DIVLTQSPASLAVSPGQRATITCRASESVDNYGYSFMHWYQQKPGQPPKLLIYRASNLESGVPARFSGSGSRTDFTLTINPVEANDTANYYCQQSKEYPTFGGGTKVEIK
notes: mAb; constant regions not restated (hu326-1 is IgG2 / kappa); Back mutation to murine
B2: hu326-2 T88N (antibody, V domains shown)
VH: QVQLVQSGSELKKPGASVKVSCKASGYTFTNYGMNWVRQAPGQGLEWMGWINNNNGEPTYAQGFRGRFVFSLDTSASTAYLQISSLKNEDTAVYFCARDVMDYWGQGTTVTVSS
VL: DIVLTQSPASLAVSPGQRATITCRASESVDNYGYSFMHWYQQKPGQPPKLLIYRASNLESGVPARFSGSGSRTDFTLTINPVEANDTANYYCQQSKEYPTFGGGTKVEIK
notes: as for B1
B3: hu326-2 A76V (antibody, V domains shown)
VH: QVQLVQSGSELKKPGASVKVSCKASGYTFTNYGMNWVRQAPGQGLEWMGWINNNNGEPTYAQGFRGRFVFSLDTSVSTAYLQISSLKTEDTAVYFCARDVMDYWGQGTTVTVSS
VL: DIVLTQSPASLAVSPGQRATITCRASESVDNYGYSFMHWYQQKPGQPPKLLIYRASNLESGVPARFSGSGSRTDFTLTINPVEANDTANYYCQQSKEYPTFGGGTKVEIK
notes: mAb; constant regions not restated (hu326-1 is IgG2 / kappa); Forward mutation to human
B4: hu326-2 A16E (antibody, V domains shown)
VH: QVQLVQSGSELKKPGESVKVSCKASGYTFTNYGMNWVRQAPGQGLEWMGWINNNNGEPTYAQGFRGRFVFSLDTSASTAYLQISSLKTEDTAVYFCARDVMDYWGQGTTVTVSS
VL: DIVLTQSPASLAVSPGQRATITCRASESVDNYGYSFMHWYQQKPGQPPKLLIYRASNLESGVPARFSGSGSRTDFTLTINPVEANDTANYYCQQSKEYPTFGGGTKVEIK
notes: as for B1
B5: Fab hu317-1_Vh / hu317-1_Vκ (Fab, V domains shown)
VH: QVQLQESGPGLVKPSETLSLTCTVSGFSLTSYGVHWIRQPPGKGLEWLGVIWAGGSTNYNPSLKSRLTISKDNSKSQVSLKMSSVTAADTAVYYCARAYGNYWYIDVWGQGTTVTVSS
VL: DIVMTQSPDSLAVSLGERATINCKASQSVSNDVAWYQQKPGQPPKLLINYAFHRFTGVPDRFSGSGYGTDFTLTISSLQAEDVAVYYCHQAYSSPYTFGGGTKLEIK
B6: Fab hu317-3A / hu317-1_Vκ (Fab, V domains shown)
VH: QVQLQESGPGLVKPSETLSLTCTVSGFSLTSYGVHWIRQPPGKGLEWIGVIWAGGSTNYNPSLKSRVTISVDTSKNQFSLKLSSVTAADTAVYYCARAYGNYWYIDVWGQGTTVTVSS
VL: DIVMTQSPDSLAVSLGERATINCKASQSVSNDVAWYQQKPGQPPKLLINYAFHRFTGVPDRFSGSGYGTDFTLTISSLQAEDVAVYYCHQAYSSPYTFGGGTKLEIK
B7: Fab hu317-2_L48I / hu317-1_Vκ (Fab, V domains shown)
VH: QVQLQESGPGLVKPSETLSLTCTVSGFSLTSYGVHWIRQPPGKGLEWIGVIWAGGSTNYNPSLKSRLTISKDNSKSQVSLKMSSVTAADTAVYYCARAYGNYWYIDVWGQGTTVTVSS
VL: DIVMTQSPDSLAVSLGERATINCKASQSVSNDVAWYQQKPGQPPKLLINYAFHRFTGVPDRFSGSGYGTDFTLTISSLQAEDVAVYYCHQAYSSPYTFGGGTKLEIK
B8: Fab hu317-1_Vh / HU317-2_G100Q (Fab, V domains shown)
VH: QVQLQESGPGLVKPSETLSLTCTVSGFSLTSYGVHWIRQPPGKGLEWLGVIWAGGSTNYNPSLKSRLTISKDNSKSQVSLKMSSVTAADTAVYYCARAYGNYWYIDVWGQGTTVTVSS
VL: DIVMTQSPDSLAVSLGERATINCKASQSVSNDVAWYQQKPGQPPKLLINYAFHRFTGVPDRFSGSGYGTDFTLTISSLQAEDVAVYYCHQAYSSPYTFGQGTKLEIK
B9: Fab hu317-2_S76N / hu317-1_Vκ (Fab, V domains shown)
VH: QVQLQESGPGLVKPSETLSLTCTVSGFSLTSYGVHWIRQPPGKGLEWLGVIWAGGSTNYNPSLKSRLTISKDNSKNQVSLKMSSVTAADTAVYYCARAYGNYWYIDVWGQGTTVTVSS
VL: DIVMTQSPDSLAVSLGERATINCKASQSVSNDVAWYQQKPGQPPKLLINYAFHRFTGVPDRFSGSGYGTDFTLTISSLQAEDVAVYYCHQAYSSPYTFGGGTKLEIK
B10: Fab hu317-2_L67V / hu317-1_Vκ (Fab, V domains shown)
VH: QVQLQESGPGLVKPSETLSLTCTVSGFSLTSYGVHWIRQPPGKGLEWLGVIWAGGSTNYNPSLKSRVTISKDNSKSQVSLKMSSVTAADTAVYYCARAYGNYWYIDVWGQGTTVTVSS
VL: DIVMTQSPDSLAVSLGERATINCKASQSVSNDVAWYQQKPGQPPKLLINYAFHRFTGVPDRFSGSGYGTDFTLTISSLQAEDVAVYYCHQAYSSPYTFGGGTKLEIK
B11: Fab hu317-2_K71V / hu317-1_Vκ (Fab, V domains shown)
VH: QVQLQESGPGLVKPSETLSLTCTVSGFSLTSYGVHWIRQPPGKGLEWLGVIWAGGSTNYNPSLKSRLTISVDNSKSQVSLKMSSVTAADTAVYYCARAYGNYWYIDVWGQGTTVTVSS
VL: DIVMTQSPDSLAVSLGERATINCKASQSVSNDVAWYQQKPGQPPKLLINYAFHRFTGVPDRFSGSGYGTDFTLTISSLQAEDVAVYYCHQAYSSPYTFGGGTKLEIK
B12: Fab hu317-2_M82L / hu317-1_Vκ (Fab, V domains shown)
VH: QVQLQESGPGLVKPSETLSLTCTVSGFSLTSYGVHWIRQPPGKGLEWLGVIWAGGSTNYNPSLKSRLTISKDNSKSQVSLKLSSVTAADTAVYYCARAYGNYWYIDVWGQGTTVTVSS
VL: DIVMTQSPDSLAVSLGERATINCKASQSVSNDVAWYQQKPGQPPKLLINYAFHRFTGVPDRFSGSGYGTDFTLTISSLQAEDVAVYYCHQAYSSPYTFGGGTKLEIK
B13: Fab hu317-2_N73T / hu317-1_Vκ (Fab, V domains shown)
VH: QVQLQESGPGLVKPSETLSLTCTVSGFSLTSYGVHWIRQPPGKGLEWLGVIWAGGSTNYNPSLKSRLTISKDTSKSQVSLKMSSVTAADTAVYYCARAYGNYWYIDVWGQGTTVTVSS
VL: DIVMTQSPDSLAVSLGERATINCKASQSVSNDVAWYQQKPGQPPKLLINYAFHRFTGVPDRFSGSGYGTDFTLTISSLQAEDVAVYYCHQAYSSPYTFGGGTKLEIK
B14: Fab hu317-2_V78F / hu317-1_Vκ (Fab, V domains shown)
VH: QVQLQESGPGLVKPSETLSLTCTVSGFSLTSYGVHWIRQPPGKGLEWLGVIWAGGSTNYNPSLKSRLTISKDNSKSQFSLKMSSVTAADTAVYYCARAYGNYWYIDVWGQGTTVTVSS
VL: DIVMTQSPDSLAVSLGERATINCKASQSVSNDVAWYQQKPGQPPKLLINYAFHRFTGVPDRFSGSGYGTDFTLTISSLQAEDVAVYYCHQAYSSPYTFGGGTKLEIK

Assays:
[1] = target: T1, human PD-1 expressed on cells (human, UniProt Q15116 25-288); experiment: FACS on PD-1-expressing cells
T1 construct: whole, on cells; also called HuT78/PD-1; NK92MI/PD-1

[2] = target: P3Z chimeric PD-1 receptor (human); experiment: cell-based or functional assay
[3] = target: T1, human PD-1 expressed on cells; experiment: cell-based or functional assay
[4] = target: P3Z chimeric PD-1 receptor (human); experiment: cell-based or functional assay; remark: listed apart in the source

T1 sequence (Q15116 25-288): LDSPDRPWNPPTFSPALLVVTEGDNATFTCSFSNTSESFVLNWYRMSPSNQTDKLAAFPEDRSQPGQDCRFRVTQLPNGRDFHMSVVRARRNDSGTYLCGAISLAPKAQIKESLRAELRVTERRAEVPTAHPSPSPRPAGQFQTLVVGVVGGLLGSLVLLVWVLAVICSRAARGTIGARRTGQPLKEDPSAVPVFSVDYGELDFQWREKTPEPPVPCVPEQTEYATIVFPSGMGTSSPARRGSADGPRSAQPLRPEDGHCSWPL
P3Z chimeric PD-1 receptor (human), sequence (chain, as listed by the source mutant limits assumed): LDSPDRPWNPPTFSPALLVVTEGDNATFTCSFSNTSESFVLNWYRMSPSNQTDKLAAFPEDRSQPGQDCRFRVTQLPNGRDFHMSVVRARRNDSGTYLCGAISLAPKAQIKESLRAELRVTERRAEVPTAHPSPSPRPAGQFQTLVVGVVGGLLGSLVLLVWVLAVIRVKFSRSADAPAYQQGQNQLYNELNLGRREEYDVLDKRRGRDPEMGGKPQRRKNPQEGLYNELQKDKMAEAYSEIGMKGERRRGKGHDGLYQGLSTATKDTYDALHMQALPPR

Binder	EC50 [1] [µg/mL]	IL-2 release in HuT78/P3Z, IC50 [2] [µg/mL]	IL-2 release in HuT78/P3Z, Max inhibition [2] [%]	IL-2 release in HuT78/PD-1, EC50 [3] [µg/mL]	IL-2 release in HuT78/PD-1, Top line [3] [pg/mL]	IL-2 release in HuT78/P3Z, EC50 [4] [µg/mL]	IL-2 release in HuT78/P3Z, Max inhibition [4] [%]
B1	0.132	0.079	95.2	0.259	1240		
B2	0.098	0.102	95.8				
B3	0.102	0.071	96.7	0.112	1000		
B4	0.155	0.078	96.3	0.126	1050		
B5						0.3	98.8
B6						0.35	79.7
B7						0.37	98.5
B8						0.27	98.9
B9						0.28	98.6
B10						0.3	98.6
B11						0.48	96.5
B12						0.27	98.5
B13						0.31	98.3
B14						0.38	98
